From US6451759 (University of California, dated 2002)

Target: T1, Fas on Jurkat T cells (human, UniProt P25445 26-335)
T1 sequence (looked up): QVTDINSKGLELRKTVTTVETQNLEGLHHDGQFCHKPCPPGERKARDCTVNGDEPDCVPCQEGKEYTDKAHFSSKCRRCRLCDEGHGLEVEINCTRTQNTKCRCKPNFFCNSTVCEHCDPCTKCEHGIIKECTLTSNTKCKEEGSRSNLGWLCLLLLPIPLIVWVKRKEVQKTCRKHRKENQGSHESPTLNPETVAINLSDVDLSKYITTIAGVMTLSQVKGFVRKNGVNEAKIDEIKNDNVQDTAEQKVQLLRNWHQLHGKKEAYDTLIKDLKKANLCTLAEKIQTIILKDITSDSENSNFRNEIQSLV
Test: cell-based or functional assay

B1: deletion mutant 2 of human FasL (ligand)
chain: SQMHTASSLEKQIGHPSPPPEKKELRKVAHLTGKSN
  percent specific 51Cr release from Jurkat target cells (cytotoxicity assay, transfected COS-7 effector cells): ~2 fold over wild-type FasL
